We go through nine molecules from US20030235860A1, “Interactions between AR, ER, TR2, and TR4” (priority 1999, published 2003).

The subject of assay [1] is PSA. Nature of the assay: Northern blot of endogenous PSA in LNCaP cells. The note with it: LNCaP cells. It counts as cell-based, human. The method, then:
Total RNA from the DHT-treated transfected LNCaP cells was prepared by the ultracentrifugation method as described. Lee, et al., J: Biol. Chem. 273, 13437-13443 (1998). The probe was obtained from exon 3 of PSA gene and labeled with a-32p dCTP.
To rule out the potential artificial effects linked to transfected reporter assays, the expression of endogenous prostate specific antigen (PSA, an androgen target that is widely used as a marker for prostate cancer progression) in LNCaP cells was measured by Northern blot analysis. Total RNA (25 μg) from LNCaP cells, which were transfected with either pCMX-TR4 or pCMX vector using SuperFect (Qiagen), was applied into a formamide RNA gel, then transferred onto a Nylon membrane, and then hybridized with a 32P-PSA gene fragment from the exon 3. P-actin was used as an internal control. […] The level of secreted PSA protein in the medium measured by ELISA, also confirmed this conclusion. This in vivo TR4-mediated suppressive effect strongly supports the above reporter assays.
Total RNA from transfected LNCaP cells was prepared using TRIZOL reagents (Life Technology) as instructed by manufacturer. The probe was obtained from the PSA gene by PCR and labeled with 32P dCTP. Northern hybridization was performed as described previously [Mu X. M. et al. (2002) J Biol Chem 275:23877-23883].

Assay [2] has as its system MCF7-TR2 cells. Nature of the assay: MTT growth assay, MCF7-TR2 cells. The note with it: MCF7-TR2 cells; 10 nM E2, and/or 2 mg/ml doxycycline (TR2 induction). It counts as cell-based. The method, then:
(A) Growth assays were performed by MTT method as instructed by manufacturer (Sigma). 5×10^3 MCF7-pBIG and MCF7-TR2 cells were seeded in 24-well plates and incubated in RPMI with 10% CD-FCS for 48 h. […] After 3- and 5-day treatment, cells were harvested for MTT assay. Data represents the relative folds of MTT O.D.570 values at day 5 divided by that at day 3. […] Cells were then trypsinized and fixed overnight in 70% Ethanol. After cells were incubated with 1 mg/ml RNase A (Sigma) and propidium iodide (Roche Molecular Biochemicals), the DNA contents of cells were measured by a flow cytometry. (C) Percentage of growth suppression by TR2. MCF7-TR2 cells were seeded at 5×10^3 cells per well in 24-well plates. […] The treatments were changed every two days. The indices of cell growth were determined by MTT assay. The MTT values from cells without doxycycline were set as 100% in each kind of treatment. Values are represented by the percentage of growth suppression from cells with doxycycline to that without doxycycline.
(Tetrazolium assays rely on reduction of a dye to a coloured formazan, in cell work by metabolically active cells.)

The target of assay [3] is T1, estrogen receptor (ER), full-length (human, UniProt P03372 1-595).
T1 construct: 35S-labeled when in vitro translated for the pull-downs; endogenous in MCF7 cells for the co-immunoprecipitation; also called ERα; pSG5-ER
T1 sequence: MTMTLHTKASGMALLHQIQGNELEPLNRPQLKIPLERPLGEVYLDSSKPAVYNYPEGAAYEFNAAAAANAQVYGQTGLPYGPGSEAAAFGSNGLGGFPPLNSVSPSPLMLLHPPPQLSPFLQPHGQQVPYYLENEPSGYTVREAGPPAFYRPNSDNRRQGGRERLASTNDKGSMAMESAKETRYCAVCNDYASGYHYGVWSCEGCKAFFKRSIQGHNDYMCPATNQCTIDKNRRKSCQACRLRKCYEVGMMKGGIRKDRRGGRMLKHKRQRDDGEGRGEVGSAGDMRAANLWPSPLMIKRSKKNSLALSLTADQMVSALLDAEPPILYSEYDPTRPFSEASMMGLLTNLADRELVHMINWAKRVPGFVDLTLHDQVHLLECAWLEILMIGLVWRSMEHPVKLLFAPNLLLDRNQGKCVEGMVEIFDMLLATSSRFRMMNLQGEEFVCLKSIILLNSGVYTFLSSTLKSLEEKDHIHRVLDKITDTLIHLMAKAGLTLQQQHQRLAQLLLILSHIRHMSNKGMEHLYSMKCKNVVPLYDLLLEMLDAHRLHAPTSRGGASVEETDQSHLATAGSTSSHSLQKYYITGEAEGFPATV
The assay is described as follows: Table 4, summary of interactions tested; assay not given.

Assay [4] addresses T2, TR2 (Homo sapiens, UniProt P13056).
T2 sequence (P13056 1-603): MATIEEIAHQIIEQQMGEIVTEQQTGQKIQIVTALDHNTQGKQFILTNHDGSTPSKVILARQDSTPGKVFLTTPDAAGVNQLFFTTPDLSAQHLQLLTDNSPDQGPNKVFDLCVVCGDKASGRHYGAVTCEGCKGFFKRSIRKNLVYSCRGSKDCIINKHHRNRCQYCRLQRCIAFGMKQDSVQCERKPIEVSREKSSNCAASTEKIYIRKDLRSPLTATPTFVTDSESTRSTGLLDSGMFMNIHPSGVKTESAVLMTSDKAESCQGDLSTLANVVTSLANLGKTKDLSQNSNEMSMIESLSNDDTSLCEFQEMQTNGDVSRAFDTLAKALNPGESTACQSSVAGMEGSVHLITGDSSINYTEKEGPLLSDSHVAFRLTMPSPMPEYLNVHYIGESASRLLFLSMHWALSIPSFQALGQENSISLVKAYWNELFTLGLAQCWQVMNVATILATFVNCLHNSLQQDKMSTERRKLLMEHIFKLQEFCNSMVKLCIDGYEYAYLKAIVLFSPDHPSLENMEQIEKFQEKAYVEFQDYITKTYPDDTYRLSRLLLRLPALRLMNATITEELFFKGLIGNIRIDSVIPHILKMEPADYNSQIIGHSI
The assay is described as follows: GST-ER fragment pull-down of [35S]-TR2. It counts as binding. Set-up: host or cells: in vitro translation, TNT reticulocyte lysate. The note with it: for Interaction with [35S]-TR2: GST-ER fragments, presence of 1 μM E2, Example 1; for Interaction with TR2: GST-fused ER peptides, presence or absence of E2, Example 2. The method, then:
Fusion proteins of GST-TR2, GST-ER segments and GST were obtained by transforming expressing plasmids into BL21(DE3) pLysS competent bacteria followed with 2-hour IPTG induction. GST-proteins were then purified by mixing Glutathione-Sepharose™ 4B (Pharmacia) into bacteria lysates on a rotating disk at 4° C. for 40 mm followed by washing with 1 mL NENT buffer (20 mM Tris-HCL (pH 8.0), 100 mM NaCl, 1 mM EDTA, 6 mM MgCl2, 1 mM Dithiothretiol, 8% Glycerol, 1 mM PMSF and 0.5% (v/v) NP-40). The ER, AR, RXRA., and TR2 proteins labeled with [35S] were generated in vitro by using the TNT reticulocyte lysate system (Promega). For the in vitro interaction, the glutathione-Sepharose bound GST-proteins were resuspended with 100 μl of interaction buffer (20 mM HEPES pH 7.9, 150 mM KCl, 5 mM MgCl2. 0.5 mM EDTA, 0.5 mM Dithiothretiol, 0.1% (v/v) NP-40, 0.1% (w/v) BSA and 1 mM PMSF) and mixed with 5 μl of […] at 4° C. for 3 h. After extensive washes with NENT buffer, the bound proteins were separated on an SDS/8% PAGE and visualized by using autoradiography.
The in vitro GST pull-down assay was applied to examine the interaction between the TR2 and ER. In vitro-translated, [35S]-labeled ER, AR, and RXRα proteins were incubated with GST or GST-TR2 bound on glutathione-Sepharose beads. After extensive washing, proteins were separated on an SDS/8% PAGE and visualized by using autoradiography.
GST alone and GST fusion proteins were purified by Glutathione-Sepharose 4B beads as instructed by manufacturer (Amersham Pharmacia). The pull-down assay was performed with 5 μl of in vitro-translated [^35S]-labeled proteins as described previously (Yeh, S. et al. (2000) Proc. Natl. Acad. Sci. USA 97, 11256-61).

On to `C[C@]12CCC(=O)C[C@@H]1CC[C@@H]1[C@@H]2CC[C@]2(C)[C@@H](O)CC[C@@H]12` [DHT, hihydroxytestosterone, reference compound], for which the “PSA mRNA expression” value in assay [1] (10 nM DHT, pCMV-TR2, Example 4) was “induces PSA mRNA expression”. The “Induction of PSA transcript” value in assay [1] (24 hours of DHT treatment) was “about 2.5 fold”.
`C[C@H]1c2cccc(O)c2C(=O)C2=C(O)[C@]3(O)C(=O)C(C(N)=O)=C(O)[C@@H](N(C)C)[C@@H]3[C@@H](O)[C@@H]21` [doxycycline, reference compound]: the “Cell growth, relative folds of MTT O.D.570 at day 5 divided by day 3” value in assay [2] amounted to 11.1 fold.

B1: TR4 LBD (row label of Table 4) (receptor)
chain: AASTEKIYIRKDLRSPLIATPTFVADKDGARQTGLLDPGMLVNIQQPLIREDGTVLLATDSKAETSQGALGTLANVVTSLANLSESLNNGDTSEIQPEDQSASEITRAFDTLAKALNTTDSSSSPSLADGIDTSGGGSIHVISRDQSTPIIEVEGPLLSDTHVTFKLTMPSPMPEYLNVHYICESASRLLFLSMHRARSIPAFQGLGQDCNTSLVRACWNELFTLGLAQCAQVMSLSTILAAIVNHLQNSIQEDKLSGDRIKQVMEHIWKLQEFCNSMANWDIDGYEYAYLKAIVLFSPDHPGLTSTSQIEKFQEKAQMELQDYVQKTYSEDTYRLARILVRLPALRLMSSNITEELFFTGLIGNVSIDSIIPYILKMETAEYNGQITGVSL
notes: not shown: Fusion partner: GST in the pull-down with ER, GAL4-DBD in the hybrid assays with AR
For B1, the binding result in assay [3] is “binds”.

B2: TR2 N-T (row label of Table 4) (receptor)
chain: MATIEEIAHQIIEQQMGEIVTEQQTGQKIQIVTALDHNTQGKQFILTNHDGSTPSKVILARQDSTPGKVFLTTPDAAGVNQLFFTTPDLSAQHLQLLTDNSPDQGPNKVFDL
notes: also called TR2 N-terminal domain; not shown: GST fusion partner of pGEX-KG (GST-TR2-#1)
Take B2: the binding result in assay [3] is “no binding”.

B3: TR2 DBD (row label of Table 4) (receptor)
chain: DLSAQHLQLLTDNSPDQGPNKVFDLCVVCGDKASGRHYGAVTCEGCKGFFKRSIRKNLVYSCRGSKDCIINKHHRNRCQYCRLQRCIAFGMKQDSVQCERKPIEVSREK
notes: not shown: GST fusion partner of pGEX-KG (GST-TR2-#2)
Take B3: the binding result in assay [3] was “binds”.

B4: GST-ER-DBD: GST fusion of aa 123-340 of ER (protein)
chain: PHGQQVPYYLENEPSGYTVREAGPPAFYRPNSDNRRQGGRERLASTNDKGSMAMESAKETRYCAVCNDYASGYHYGVWSCEGCKAFFKRSIQGHNDYMCPATNQCTIDKNRRKSCQACRLRKCYEVGMMKGGIRKDRRGGRMLKHKRQRDDGEGRGEVGSAGDMRAANLWPSPLMIKRSKKNSLALSLTADQMVSALLDAEPPILYSEYDPTRPFSEA
modifications: left off: a dimerising Fc or GST; small tags and cut ends
notes: GST fusion of aa 123-340 of ER
Turning to B4, the “Interaction with [35S]-TR2” value in assay [4] is reported as “not”.

B5: GST-ER-#2: GST fusion of ER aa 123-340 (protein)
chain: B4 chain
modifications: left off: a dimerising Fc or GST; small tags and cut ends
For B5, in assay [4], the “Interaction with TR2” value is given as “can interact”.

B6: GST-ER-N: GST fusion of aa 1-165 of ER (protein)
chain: MTMTLHTKASGMALLHQIQGNELEPLNRPQLKIPLERPLGEVYLDSSKPAVYNYPEGAAYEFNAAAAANAQVYGQTGLPYGPGSEAAAFGSNGLGGFPPLNSVSPSPLMLLHPPPQLSPFLQPHGQQVPYYLENEPSGYTVREAGPPAFYRPNSDNRRQGGRERL
modifications: left off: a dimerising Fc or GST; small tags and cut ends
notes: GST fusion of aa 1-165 of ER
As to B6, in assay [4], the “Interaction with [35S]-TR2” value is “not”.

B7: GST-ER-#I: GST fusion of ER aa 1-165 (protein)
chain: B6 chain
modifications: left off: a dimerising Fc or GST; small tags and cut ends
Turning to B7, the “Interaction with TR2” value in assay [4] was “not”.
